In assay [1] the target is CD20 (UniProt P11836). Put plainly: binding to CD20 after 37° C. for 3 days; method not stated.
For assay [2], the target named is CD20 (UniProt P11836). Put plainly: binding to CD20 after 37° C. for 7 days; method not stated.

We go through one substance from patent US20150344587A1.

For (Fucα1,6)GlcNAc-Rituximab (antibody), the results for the loss of binding affinity with CD20 [1] and in the assay with CD20 [2] were 10% and 20%, respectively.
